Source: PMC7332344

Biological target: Rhodobacter sphaeroides TSPO A139T mutant (Rhodobacter sphaeroides) (UniProt Q9RFC8)
Test: native MS

- stoichiometry N: 2
Substance: Rhodobacter sphaeroides TSPO A139T mutant (from UniProt Q9RFC8 1-157) (natural protein)
